Measured values: CN113754774A (SUNSHINE GUOJIAN PHARMACEUTICAL SHANGHAI CO LTD, dated 2021)

Assays:
野生型EGFR on A431 cells = 野生型EGFR on A431 cells (human, UniProt P00533 25-1210); assay: cell-based or functional assay
EGFR-ECD-hFc [1] = target: T1, EGFR-ECD-hFc (human, UniProt P00533 25-645); assay: ELISA, EGFR-ECD-hFc coated, HRP anti-human Fab detection (Fig. 2B)
T1 construct: extracellular domain; Made in-house in HEK293F; ELISA coating antigen; not shown: Fc segment of human IgG1

PD-L1-His [2] = target: T2, PD-L1-His (UniProt Q9NZQ7 19-238, limits assumed); assay: ELISA, PD-L1-His coated at 10 ng/well
T2 construct: extracellular domain; Made in-house in HEK293F; used as ELISA coat and as Biacore analyte; not shown: C-terminal polyhistidine tag

EGFR-ECD-hFc [3] = target: T1, EGFR-ECD-hFc; assay: ELISA, EGFR-ECD-hFc coated (Fig. 3B)
PD-L1-His [4] = target: T2, PD-L1-His; assay: ELISA, PD-L1-His coated (Fig. 3A)

B1: Cetuximab-HC+Anti-PDL1-LC (antibody, V domains shown)
VH: not shown
VL: EIVLTQSPDFLSVTPKEKVTITCRASQSIGTTIHWYQQKPDQSPKLLIKYASQSFSGVPSRFSGSGSGTDFTLTINSVEAEDAATYYCQQSNSWPLTFGAGTKLEIKR
notes: Hybrid antibody: heavy chain of Cetuximab with the light chain of Anti-PDL1 (the common light chain)
- 抑制A431细胞的增殖 IC50 (CCK-8) (野生型EGFR on A431 cells): 0.563 nM
- EC50 (EGFR-ECD-hFc [1]): 0.248 nM
- binding result (PD-L1-His [2]): no binding
- EC50 (EGFR-ECD-hFc [3]): 0.225 nM

B2: PDL1-Fab-Cetuximab-IgG1 (bispecific antibody)
heavy: not shown
light: EIVLTQSPDFLSVTPKEKVTITCRASQSIGTTIHWYQQKPDQSPKLLIKYASQSFSGVPSRFSGSGSGTDFTLTINSVEAEDAATYYCQQSNSWPLTFGAGTKLEIKRTVAAPSVFIFPPSDEQLKSGTASVVCLLNNFYPREAKVQWKVDNALQSGNSQESVTEQDSKDSTYSLSSTLTLSKADYEKHKVYACEVTHQGLSSPVTKSFNRGEC
notes: Tetravalent bispecific antibody against PD-L1 and EGFR; two long polypeptide chains and four common light chains
- 抑制A431细胞的增殖 IC50 (CCK-8) (野生型EGFR on A431 cells): 0.709 nM
- EC50 (PD-L1-His [4]): 0.2 nM
- EC50 (EGFR-ECD-hFc [3]): 0.239 nM

B3: Cetuximab-Fab-PDL1-IgG1 (bispecific antibody)
heavy: not shown
light: B2 light
notes: as for B2
- 抑制A431细胞的增殖 IC50 (CCK-8) (野生型EGFR on A431 cells): 0.96 nM
- EC50 (PD-L1-His [4]): 0.336 nM
- EC50 (EGFR-ECD-hFc [3]): 0.185 nM
